{"source": "paper PMC7991746", "key": {"[1]": {"biological_target": "DUSP3-C124S mutant (phosphatase dead) (UniProt P51452)", "sequence (P51452 whole entry C124S)": "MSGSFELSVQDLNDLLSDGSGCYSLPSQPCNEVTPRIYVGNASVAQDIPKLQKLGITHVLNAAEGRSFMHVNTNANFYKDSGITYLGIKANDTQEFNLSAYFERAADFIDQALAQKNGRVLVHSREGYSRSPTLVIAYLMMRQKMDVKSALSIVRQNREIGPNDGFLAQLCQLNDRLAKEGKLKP", "assay": "SPR; Biacore T100; DUSP3-WT or DUSP3-C124S immobilised on CM5 sensorchip (200 RU); protein analytes 12.5-1,000 nM; kinetic assays at 25°C, HBS-EP buffer, 10 μl/min, 120 s association, 300 s dissociation; three independent experiments"}, "[2]": {"biological_target": "DUSP3-WT (dual-specificity phosphatase 3) (UniProt P51452)", "sequence (P51452 whole entry)": "as the sequence (P51452 whole entry C124S) above, with S124C counted along it", "assay": "SPR; Biacore T100; DUSP3-WT or DUSP3-C124S immobilised on CM5 sensorchip (200 RU); protein analytes 12.5-1,000 nM; kinetic assays at 25°C, HBS-EP buffer, 10 μl/min, 120 s association, 300 s dissociation; three independent experiments"}, "[3]": {"biological_target": "dual-specificity phosphatase 3 (DUSP3), wild type (UniProt P51452)", "sequence (P51452 whole entry)": "as the sequence (P51452 whole entry C124S) above, with S124C counted along it", "assay": "SPR; Biacore T100; DUSP3-WT or DUSP3-C124S immobilised on CM5 sensorchip (200 RU); analytes 12.5 to 1,000 nM; 25°C; HBS-EP buffer; association 120 s, dissociation 300 s, 10 μl/min"}}, "data": [{"substance": "NPM full length (nucleophosmin) (natural protein)", "values": [{"measurement": "Kd", "setting": "[1]", "result": 11.5, "unit": "nM"}, {"measurement": "Kd", "setting": "[2]", "result": 17.2, "unit": "nM"}]}, {"substance": "truncated N-terminal of NPM 9-122 (domain or fragment)", "values": [{"measurement": "Kd", "setting": "[1]", "result": 393, "unit": "nM"}, {"measurement": "Kd", "setting": "[2]", "result": 294, "unit": "nM"}]}, {"substance": "nucleophosmin (NPM) full length (natural protein)", "values": [{"measurement": "fold higher affinity than ERK1", "setting": "[3]", "result": 10, "unit": "fold"}, {"measurement": "fold higher affinity than NPM 9-122", "setting": "[3]", "result": 17, "unit": "fold"}]}]}
